In the supplement of paper PMC9428881:
± gives the standard error.

Assay: background-corrected fluorescence of 3'-dye-labeled ssDNA relative to brightest sequence (3'-GCGCG) (fraction); higher = brighter dye fluorescence (less quenching)
In short: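 Single-stranded DNA was built on glass slides by light-directed phosphoramidite synthesis, ending in a 3' Cy3 or Cy5 dye beside each of 1024 permuted pentamers. Arrays were washed in acetonitrile for 2 h at r.t., then scanned at 532 or 635 nm before and after overnight ethylenediamine/ethanol deprotection. Each value averages 10 features per array and at least 3 syntheses. Fluorescence, corrected by subtracting unlabeled-oligo background, is scaled to the brightest sequence.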

Sequence | background-corrected fluorescence (dye: Cy3 (3' terminal)) | background-corrected fluorescence (dye: Cy5 (3' terminal))
TTTTTGCATGATGATGCTCATTTTTTTTTTTTTTTTCCAG [GACCT] | 0.47 ± 0.02 | 0.377 ± 0.02
TTTTTGCATGCTGATCATGATTTTTTTTTTTTTTTTACGC [CGCAT] | 0.523 ± 0.0065 | 0.439 ± 0.032
TTTTTGCAGCATGCTCAGCATTTTTTTTTTTTTTTTTAGT [TGATT] | 0.619 ± 0.012 | 0.5 ± 0.03
TTTTTTCAGCATGATGCTGCTTTTTTTTTTTTTTTGTCAA [AACTG] | 0.609 ± 0.012 | 0.453 ± 0.04
TTTTTGCATCATGAGCATGATTTTTTTTTTTTTTTTGCTC [CTCGT] | 0.374 ± 0.037 | 0.296 ± 0.036
TTTTTTGATCAGCATGATCATTTTTTTTTTTTTTTCGTCG [GCTGC] | 0.609 ± 0.03 | 0.463 ± 0.024
TTTTTTGCTCATGCTGCTCATTTTTTTTTTTTTTTAGAAG [GAAGA] | 0.5917 ± 0.0049 | 0.456 ± 0.025
TTTTTGCAGCAGCATGCTGATTTTTTTTTTTTTTTTTTAC [CATTT] | 0.391 ± 0.039 | 0.292 ± 0.021
TTTTTTGCTGATGAGCATGCTTTTTTTTTTTTTTTACCTA [ATCCA] | 0.449 ± 0.018 | 0.366 ± 0.019
TTTTTGCATCATGATGATCATTTTTTTTTTTTTTTTGCCG [GCCGT] | 0.519 ± 0.027 | 0.389 ± 0.029
TTTTTGCATGCTGAGCATCATTTTTTTTTTTTTTTTACTG [GTCAT] | 0.499 ± 0.024 | 0.373 ± 0.027
TTTTTTGATGATCAGCAGCATTTTTTTTTTTTTTTCCGTT [TTGCC] | 0.542 ± 0.036 | 0.446 ± 0.059
TTTTTGCATCATGATGCTGATTTTTTTTTTTTTTTTGCAC [CACGT] | 0.415 ± 0.035 | 0.321 ± 0.028
TTTTTGCATCAGCATGATGCTTTTTTTTTTTTTTTTGTCA [ACTGT] | 0.487 ± 0.069 | 0.439 ± 0.08
TTTTTTCATGCTCATGAGCATTTTTTTTTTTTTTTGAGCT [TCGAG] | 0.559 ± 0.024 | 0.41 ± 0.022
TTTTTTCATGAGCATGCTCATTTTTTTTTTTTTTTGCTAG [GATCG] | 0.57 ± 0.036 | 0.422 ± 0.053
TTTTTTGAGCAGCATCATGCTTTTTTTTTTTTTTTCTTGA [AGTTC] | 0.615 ± 0.027 | 0.53 ± 0.07
TTTTTTGCTCAGCATGCTGCTTTTTTTTTTTTTTTAGTAA [AATGA] | 0.563 ± 0.016 | 0.493 ± 0.037
TTTTTGCATGCTGCTGCTCATTTTTTTTTTTTTTTTAAAG [GAAAT] | 0.552 ± 0.036 | 0.397 ± 0.021
TTTTTTGATGATGCTGCTCATTTTTTTTTTTTTTTCCAAG [GAACC] | 0.521 ± 0.029 | 0.384 ± 0.029
TTTTTTCAGCATGCTCATGCTTTTTTTTTTTTTTTGTAGA [AGATG] | 0.671 ± 0.021 | 0.533 ± 0.039
TTTTTTCATGATGCTGATCATTTTTTTTTTTTTTTGCACG | 0.548 ± 0.028 | 0.383 ± 0.035
TTTTTTCATGCTGCTGCTGCTTTTTTTTTTTTTTTGAAAA [AAAAG] | 0.63 ± 0.012 | 0.491 ± 0.052

Sequence | background-corrected fluorescence (dye: Cy3 (3' terminal)) | background-corrected fluorescence (dye: Cy5 (3' terminal))
TTTTTTGCTGCTGCTCAGCATTTTTTTTTTTTTTTAAAGT [TGAAA] | 0.653 ± 0.026 | 0.514 ± 0.049
TTTTTTCAGCATGATGATGCTTTTTTTTTTTTTTTGTCCA [ACCTG] | 0.484 ± 0.021 | 0.366 ± 0.023
TTTTTTGATCAGCATGCGCATTTTTTTTTTTTTTTCGTAT [TATGC] | 0.555 ± 0.018 | 0.401 ± 0.064
TTTTTTGATGCGCAGCATCATTTTTTTTTTTTTTTCATTG [GTTAC] | 0.561 ± 0.029 | 0.363 ± 0.021
TTTTTTCATGCGCATGAGCATTTTTTTTTTTTTTTGATCT [TCTAG] | 0.456 ± 0.055 | 0.354 ± 0.017
TTTTTGCATGCTGCTCATCATTTTTTTTTTTTTTTTAAGG [GGAAT] | 0.627 ± 0.024 | 0.518 ± 0.045
TTTTTTGCTGATGCTCATCATTTTTTTTTTTTTTTACAGG [GGACA] | 0.646 ± 0.034 | 0.511 ± 0.053
TTTTTTCATCATGATGCTCATTTTTTTTTTTTTTTGGCAG [GACGG] | 0.527 ± 0.028 | 0.426 ± 0.017
TTTTTTGAGCATGATGCTGATTTTTTTTTTTTTTTCTCAC [CACTC] | 0.391 ± 0.046 | 0.314 ± 0.022
TTTTTGCATGATCATCATGCTTTTTTTTTTTTTTTTCGGA [AGGCT] | 0.734 ± 0.076 | 0.648 ± 0.024
TTTTTGCAGCATGCTGAGCATTTTTTTTTTTTTTTTTACT [TCATT] | 0.49 ± 0.013 | 0.361 ± 0.047
TTTTTTGCGCATGCTGCTCATTTTTTTTTTTTTTTATAAG [GAATA] | 0.532 ± 0.019 | 0.429 ± 0.031
TTTTTTGATCATGCGCATGCTTTTTTTTTTTTTTTCGATA [ATAGC] | 0.595 ± 0.036 | 0.427 ± 0.025
TTTTTTGATCAGCATGATGATTTTTTTTTTTTTTTCGTCC [CCTGC] | 0.4 ± 0.0041 | 0.315 ± 0.021
TTTTTTCAGCATCAGCATGATTTTTTTTTTTTTTTGTGTC [CTGTG] | 0.4591 ± 0.0035 | 0.356 ± 0.068
TTTTTTGCTCATCATCATGCTTTTTTTTTTTTTTTAGGGA | 0.707 ± 0.036 | 0.642 ± 0.037
TTTTTGCATCATGAGCAGCATTTTTTTTTTTTTTTTGCTT [TTCGT] | 0.514 ± 0.029 | 0.384 ± 0.038
TTTTTTCATGCTCATGATGCTTTTTTTTTTTTTTTGAGCA [ACGAG] | 0.585 ± 0.025 | 0.43 ± 0.035
TTTTTTGATGCTGCGCAGCATTTTTTTTTTTTTTTCAATT [TTAAC] | 0.538 ± 0.027 | 0.385 ± 0.029
TTTTTTGCTGATGCTGCTCATTTTTTTTTTTTTTTACAAG [GAACA] | 0.53 ± 0.015 | 0.425 ± 0.021
TTTTTTGCTGCTGCTGCGCATTTTTTTTTTTTTTTAAAAT | 0.596 ± 0.022 | 0.462 ± 0.077
TTTTTTCAGCATGCTCATGATTTTTTTTTTTTTTTGTAGC [CGATG] | 0.535 ± 0.028 | 0.441 ± 0.081
TTTTTGCAGCAGCATGCGCATTTTTTTTTTTTTTTTTTAT [TATTT] | 0.503 ± 0.033 | 0.364 ± 0.017

Sequence | background-corrected fluorescence (dye: Cy3 (3' terminal)) | background-corrected fluorescence (dye: Cy5 (3' terminal))
TTTTTGCATGCTCATGCTGCTTTTTTTTTTTTTTTTAGAA [AAGAT] | 0.639 ± 0.018 | 0.533 ± 0.052
TTTTTGCATGATGATGCTGCTTTTTTTTTTTTTTTTCCAA [AACCT] | 0.536 ± 0.038 | 0.388 ± 0.025
TTTTTTGCTGCTCATGCTGCTTTTTTTTTTTTTTTAAGAA | 0.619 ± 0.015 | 0.481 ± 0.022
TTTTTTCAGCATGCTGATGATTTTTTTTTTTTTTTGTACC [CCATG] | 0.434 ± 0.028 | 0.311 ± 0.017
TTTTTTCATGAGCATCATCATTTTTTTTTTTTTTTGCTGG [GGTCG] | 0.557 ± 0.039 | 0.47 ± 0.032
TTTTTTGCGCATGATCATCATTTTTTTTTTTTTTTATCGG [GGCTA] | 0.609 ± 0.022 | 0.504 ± 0.027
TTTTTTGCTGAGCATGATGATTTTTTTTTTTTTTTACTCC [CCTCA] | 0.378 ± 0.023 | 0.3 ± 0.044
TTTTTTGAGCAGCATGAGCATTTTTTTTTTTTTTTCTTCT | 0.441 ± 0.027 | 0.342 ± 0.027
TTTTTTCATGATCAGCATGCTTTTTTTTTTTTTTTGCGTA [ATGCG] | 0.604 ± 0.026 | 0.466 ± 0.026
TTTTTTCATGATCATGCGCATTTTTTTTTTTTTTTGCGAT [TAGCG] | 0.5348 ± 0.0049 | 0.474 ± 0.037
TTTTTGCATGCGCATCATCATTTTTTTTTTTTTTTTATGG [GGTAT] | 0.576 ± 0.011 | 0.467 ± 0.023
TTTTTGCATCATGCTGCTGCTTTTTTTTTTTTTTTTGAAA [AAAGT] | 0.603 ± 0.021 | 0.522 ± 0.041
TTTTTTGATGCTGAGCATCATTTTTTTTTTTTTTTCACTG [GTCAC] | 0.487 ± 0.028 | 0.398 ± 0.035
TTTTTTGCGCAGCATGCTGCTTTTTTTTTTTTTTTATTAA [AATTA] | 0.585 ± 0.024 | 0.416 ± 0.035
TTTTTTCATGCTGCTCATGATTTTTTTTTTTTTTTGAAGC [CGAAG] | 0.547 ± 0.024 | 0.397 ± 0.027
TTTTTTGCTGATGCTGATGATTTTTTTTTTTTTTTACACC [CCACA] | 0.369 ± 0.022 | 0.275 ± 0.012
TTTTTGCATGCTGATGCGCATTTTTTTTTTTTTTTTACAT | 0.489 ± 0.027 | 0.382 ± 0.025
TTTTTTCATGCTGCGCATGCTTTTTTTTTTTTTTTGAATA [ATAAG] | 0.553 ± 0.025 | 0.42 ± 0.053
TTTTTGCATGCGCATGCGCATTTTTTTTTTTTTTTTATAT | 0.5701 ± 0.0051 | 0.405 ± 0.037
TTTTTTGATCAGCATCATCATTTTTTTTTTTTTTTCGTGG [GGTGC] | 0.622 ± 0.021 | 0.483 ± 0.033
TTTTTGCATGATGCTGCTCATTTTTTTTTTTTTTTTCAAG [GAACT] | 0.515 ± 0.054 | 0.39 ± 0.042
TTTTTTGATGATGCTCATCATTTTTTTTTTTTTTTCCAGG [GGACC] | 0.642 ± 0.016 | 0.511 ± 0.057
